Legend:
[1] = target: T1, mouse neuropilin-2(a5), myc-tagged, expressed in COS-7 cells (mouse, UniProt O35375 21-931); assay: AP histochemistry on transfected COS cells
T1 construct: also called a5 isoform of neuropilin-2; SR2(a)5
T1 sequence: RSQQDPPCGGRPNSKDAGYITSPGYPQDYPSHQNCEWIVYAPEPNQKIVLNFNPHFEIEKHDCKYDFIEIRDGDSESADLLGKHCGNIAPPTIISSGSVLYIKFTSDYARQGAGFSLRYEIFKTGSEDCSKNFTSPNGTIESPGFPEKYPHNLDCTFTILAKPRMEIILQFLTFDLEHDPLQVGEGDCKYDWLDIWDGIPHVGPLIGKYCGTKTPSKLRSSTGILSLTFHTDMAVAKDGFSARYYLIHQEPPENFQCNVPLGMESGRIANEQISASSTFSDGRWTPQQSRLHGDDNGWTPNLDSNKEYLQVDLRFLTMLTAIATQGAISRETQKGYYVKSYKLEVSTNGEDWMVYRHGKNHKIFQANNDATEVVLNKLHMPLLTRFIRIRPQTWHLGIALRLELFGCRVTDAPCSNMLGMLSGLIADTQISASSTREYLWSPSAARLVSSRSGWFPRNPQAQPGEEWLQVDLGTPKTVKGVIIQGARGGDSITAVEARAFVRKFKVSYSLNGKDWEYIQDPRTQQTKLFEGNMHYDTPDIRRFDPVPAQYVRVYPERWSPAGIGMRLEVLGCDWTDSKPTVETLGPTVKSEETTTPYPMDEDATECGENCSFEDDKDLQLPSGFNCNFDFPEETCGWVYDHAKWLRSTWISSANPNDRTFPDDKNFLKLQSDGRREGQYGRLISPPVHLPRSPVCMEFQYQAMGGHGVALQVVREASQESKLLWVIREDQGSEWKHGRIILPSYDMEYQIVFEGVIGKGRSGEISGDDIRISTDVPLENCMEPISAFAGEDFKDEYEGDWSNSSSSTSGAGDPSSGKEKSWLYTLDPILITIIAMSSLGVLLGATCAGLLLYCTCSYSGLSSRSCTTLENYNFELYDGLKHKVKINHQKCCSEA

[2] = target: T2, mouse neuropilin-2(a22), myc-tagged, expressed in COS-7 cells (mouse, UniProt O35375 21-931); assay: AP histochemistry on transfected COS cells
T2 construct: also called SR2(a)22
T2 sequence: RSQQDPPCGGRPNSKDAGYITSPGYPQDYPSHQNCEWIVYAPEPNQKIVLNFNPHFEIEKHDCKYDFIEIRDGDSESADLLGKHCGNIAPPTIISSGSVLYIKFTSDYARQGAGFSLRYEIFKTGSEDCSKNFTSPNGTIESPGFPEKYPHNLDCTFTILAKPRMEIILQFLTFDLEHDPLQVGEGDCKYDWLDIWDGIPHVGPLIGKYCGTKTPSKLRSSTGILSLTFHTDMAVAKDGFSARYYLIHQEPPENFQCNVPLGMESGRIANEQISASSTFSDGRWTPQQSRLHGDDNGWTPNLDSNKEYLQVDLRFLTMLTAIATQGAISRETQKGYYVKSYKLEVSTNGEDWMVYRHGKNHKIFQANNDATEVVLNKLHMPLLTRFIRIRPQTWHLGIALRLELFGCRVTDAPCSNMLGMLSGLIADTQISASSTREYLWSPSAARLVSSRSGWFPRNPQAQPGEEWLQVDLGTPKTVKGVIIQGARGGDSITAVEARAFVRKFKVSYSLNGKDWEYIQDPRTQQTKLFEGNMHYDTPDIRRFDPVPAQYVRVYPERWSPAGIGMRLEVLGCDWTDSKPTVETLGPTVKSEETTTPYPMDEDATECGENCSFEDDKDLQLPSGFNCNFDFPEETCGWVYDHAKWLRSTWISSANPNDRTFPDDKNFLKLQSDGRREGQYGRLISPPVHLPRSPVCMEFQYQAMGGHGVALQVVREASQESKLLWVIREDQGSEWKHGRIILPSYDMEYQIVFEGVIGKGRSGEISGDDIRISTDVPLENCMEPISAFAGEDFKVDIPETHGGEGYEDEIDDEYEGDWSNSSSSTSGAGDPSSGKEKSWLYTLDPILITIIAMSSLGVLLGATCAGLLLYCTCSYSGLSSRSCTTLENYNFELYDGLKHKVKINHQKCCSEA

[3] = target: T3, mouse neuropilin-2(a0), myc-tagged, expressed in COS-7 cells (mouse, UniProt O35375 21-931); assay: AP histochemistry on transfected COS cells
T3 construct: also called SR2(a)0; m-npn-2
T3 sequence: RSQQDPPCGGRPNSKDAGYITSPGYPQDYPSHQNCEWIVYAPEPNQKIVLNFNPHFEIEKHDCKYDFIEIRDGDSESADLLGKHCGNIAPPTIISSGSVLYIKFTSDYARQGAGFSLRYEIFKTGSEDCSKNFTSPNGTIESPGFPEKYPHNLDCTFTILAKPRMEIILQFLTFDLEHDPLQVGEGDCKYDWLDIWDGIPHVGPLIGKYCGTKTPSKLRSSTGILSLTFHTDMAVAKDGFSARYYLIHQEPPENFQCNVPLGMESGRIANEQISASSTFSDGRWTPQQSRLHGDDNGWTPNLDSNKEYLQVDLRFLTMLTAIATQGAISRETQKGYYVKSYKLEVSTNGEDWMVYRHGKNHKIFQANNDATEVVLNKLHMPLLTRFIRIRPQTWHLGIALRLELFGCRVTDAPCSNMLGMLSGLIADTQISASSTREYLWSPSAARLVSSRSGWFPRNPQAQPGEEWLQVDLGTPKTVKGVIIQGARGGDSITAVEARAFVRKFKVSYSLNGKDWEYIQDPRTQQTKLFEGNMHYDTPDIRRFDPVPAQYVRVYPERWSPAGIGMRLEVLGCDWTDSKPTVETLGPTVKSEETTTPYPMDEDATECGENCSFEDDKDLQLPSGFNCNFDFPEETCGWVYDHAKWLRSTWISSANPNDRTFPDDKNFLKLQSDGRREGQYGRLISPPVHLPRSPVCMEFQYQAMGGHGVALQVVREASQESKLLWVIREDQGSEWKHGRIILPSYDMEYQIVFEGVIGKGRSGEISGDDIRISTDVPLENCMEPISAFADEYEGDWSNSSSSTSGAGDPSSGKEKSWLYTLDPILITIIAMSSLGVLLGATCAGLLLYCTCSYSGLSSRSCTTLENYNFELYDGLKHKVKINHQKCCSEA

[4] = target: T4, rat semaphorin receptor 1 (rSR1), full length, expressed on cells (rat, UniProt Q9QWJ9 22-922); assay: binding to transfected COS-7 cells
T4 construct: also called rat SR1; p28
T4 sequence: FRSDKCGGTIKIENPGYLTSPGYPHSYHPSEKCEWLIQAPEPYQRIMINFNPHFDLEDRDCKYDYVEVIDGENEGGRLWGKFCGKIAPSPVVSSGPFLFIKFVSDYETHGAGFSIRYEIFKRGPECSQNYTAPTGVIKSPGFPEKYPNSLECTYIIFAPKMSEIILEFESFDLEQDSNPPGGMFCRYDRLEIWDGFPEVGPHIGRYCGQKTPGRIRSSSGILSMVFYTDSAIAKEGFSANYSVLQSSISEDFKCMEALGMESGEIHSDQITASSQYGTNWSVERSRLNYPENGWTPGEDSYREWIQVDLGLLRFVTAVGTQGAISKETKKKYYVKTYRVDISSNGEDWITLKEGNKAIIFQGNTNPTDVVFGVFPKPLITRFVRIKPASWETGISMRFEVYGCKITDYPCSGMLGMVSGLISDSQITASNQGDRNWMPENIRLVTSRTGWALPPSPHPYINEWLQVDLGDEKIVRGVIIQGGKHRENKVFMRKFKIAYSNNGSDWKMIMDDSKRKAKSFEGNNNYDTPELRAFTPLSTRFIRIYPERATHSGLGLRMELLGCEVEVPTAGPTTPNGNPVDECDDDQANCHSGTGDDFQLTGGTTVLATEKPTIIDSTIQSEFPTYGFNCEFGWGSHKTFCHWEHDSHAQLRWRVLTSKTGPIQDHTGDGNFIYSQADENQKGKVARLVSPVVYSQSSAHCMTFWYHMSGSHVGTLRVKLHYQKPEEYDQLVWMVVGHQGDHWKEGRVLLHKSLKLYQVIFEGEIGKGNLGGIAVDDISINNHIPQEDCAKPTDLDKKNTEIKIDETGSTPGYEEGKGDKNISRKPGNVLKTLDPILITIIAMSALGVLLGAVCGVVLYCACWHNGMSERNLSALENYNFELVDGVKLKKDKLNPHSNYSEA

Measured: binding result

B1: alkaline phosphatase (AP) alone (enzyme, UniProt P05187 23-511, looked up)
chain: IIPVEEENPDFWNREAAEALGAAKKLQPAQTAAKNLIIFLGDGMGVSTVTAARILKGQKKDKLGPEIPLAMDRFPYVALSKTYNVDKHVPDSGATATAYLCGVKGNFQTIGLSAAARFNQCNTTRGNEVISVMNRAKKAGKSVGVVTTTRVQHASPAGTYAHTVNRNWYSDADVPASARQEGCQDIATQLISNMDIDVILGGGRKYMFRMGTPDPEYPDDYSQGGTRLDGKNLVQEWLAKRQGARYVWNRTELMQASLDPSVTHLMGLFEPGDMKYEIHRDSTLDPSLMEMTEAALRLLSRNPRGFFLFVEGGRIDHGHHESRAYRALTETIMFDDAIERAGQLTSEEDTLSLVTADHSHVFSFGGYPLRGSSIFGLAPGKARDRKAYTVLLYGNGPGYVLKDGARPDVTESESGSPEYRQQSAVPLDEETHAGEDVAVFARGPQAHLVHGVQEQTFIAHVMAFAACLEPYTACDLAPPAGTTDAAHPG
notes: Control protein; also called alkaline phosphatase protein
no binding: all assays above

— patent publication US6623738 (University of California, dated 2003)
